{
  "source": "paper PMC5231390",
  "about": "“Two-Component Signaling System VgrRS Directly Senses Extracytoplasmic and Intracellular Iron to Control Bacterial Adaptation under Iron Depleted Stress” (PLoS Pathogens, 2016)",
  "molecules": {"B1": {"name": "PtdvA 50 bp, 5'-FAM (MST) (dsDNA)", "DNA 1": "GCCCGATTTCACGTCTTTCTTCTTTTTCATTAACGGGACTTTAATTCCTG", "DNA 2": "CAGGAATTAAAGTCCCGTTAATGAAAAAGAAGAAAGACGTGAAATCGGGC"}},
  "key": {"[1]": {"target": "T1, VgrS (full-length, inverted membrane vesicles) (Xanthomonas campestris, UniProt Q8P666)", "T1 construct": "gene colS", "conditions": "100 μM ATP with 10 μCi [γ-32P]ATP, 5 mM MgCl2, pH 7.8, 28°C, labelled compound"}, "VgrR": {"target": "T2, VgrR (Xanthomonas campestris, UniProt Q7CLQ6)", "T2 construct": "gene colR; full-length, C-terminal His6, pET30a in E. coli BL21(DE3), Ni-NTA purified", "experiment": "phosphorylation of VgrR seen as raised VgrS affinity in MST", "assay_type": "biochemical", "conditions": "phosphodonor; indirect read-out (VgrR-VgrS binding)"}, "[2]": {"target": "VgrR (Xanthomonas campestris pv. campestris)", "experiment": "MST"}, "[3]": {"target": "phosphorylated VgrR (phosphorylated by acetyl phosphate) (Xanthomonas campestris pv. campestris)", "experiment": "MST"}, "[4]": {"target": "VgrR (ColR), unphosphorylated (Xanthomonas campestris pv. campestris, UniProt B0RPP4 1-225)", "experiment": "MST; 10 mM MgCl2; EMSA: 10 mM Tris-HCl pH 7.5, 50 mM KCl, 1 mM DTT, poly(dI-dC), room temp; MST: 50 mM Tris-HCl pH 7.4, 150 mM NaCl, 10 mM MgCl2, 0.05% Tween-20", "conditions": "protein: recombinant; tags: C-terminal His6 (pET30a); chain copies: 2; label: 5'-FAM on one strand"}},
  "data": [
    {"molecule": "Nc1ncnc2c1ncn2[C@@H]1O[C@H](COP(=O)(O)OP(=O)(O)OP(=O)(O)O)[C@@H](O)[C@H]1O", "note": "[ATP]", "values": [
      {"measurement": "in vitro autophosphorylation, SDS-PAGE autoradiography", "setting": "[1]", "value": "VgrS has an autokinase activity by phosphorylating itself in the presence of ATP"}
    ]},
    {"molecule": "CC(=O)OP(=O)(O)O", "note": "[acetyl phosphate]", "values": [
      {"measurement": "phosphorylation of VgrR seen as raised VgrS affinity in MST", "setting": "VgrR", "value": "Phosphorylation of VgrR by acetyl phosphate significantly increased the VgrR-VgrS binding affinity"}
    ]},
    {"molecule": "VgrS, membrane-embedded, full-length (receptor)", "values": [
      {"measurement": "Kd", "setting": "[2]", "value": 4300, "unit": "nM"},
      {"measurement": "Kd", "setting": "[3]", "value": 260, "unit": "nM"}
    ]},
    {"molecule": "B1", "values": [
      {"measurement": "Kd", "setting": "[4]", "value": "189 ± 6.22", "unit": "nM"}
    ]}
  ]
}
